Assay results published in paper PMC12133307, “Structure, kinetics, and mechanism of Pseudomonas putida sulfoquinovose dehydrogenase, the first enzyme in the sulfoglycolytic Entner-Doudoroff pathway” (Biochemical Journal, 2025).

Target: the molecule itself
Experiment: SEC-MALS; SEC-MALLS, Superdex S200 10/300 GL, 100 mM Tris pH 7.5, 300 mM NaCl, 100 µl at ~2 mg/ml, 0.5 ml/min, 20 °C

B1: Pseudomonas putida SQ dehydrogenase (PpSQDH) (enzyme, Pseudomonas putida SQ1)
chain: MNRHTDTHYPSLADKVVLISGGASGIGRAFVEAFVAQGSRVAFLDLDAEAGQGLAHALGANSLFLPCDVRDIERLKACVAEVERTWGAVDVLINNAARDDRHALADVSVEYWDERMQTNLRHAFFAAQAVAPGMARRGSGAIINMGSISWMRGRPGMVCYTTAKAALNGMTRTLARELGGQGIRINSLVPGAIRTERQDAMWAADPAGLEAASQAFIDQQMLKFRLDASDCARLALFLASDDSRGCTGQNFVVDAGLSIQ
notes: SQ dehydrogenase PpSQ1_00090 of Pseudomonas putida SQ1; Gln260 is the C-terminal residue; no step that removes the tag is described; A second preparation for kinetics was made in 'NEB T7 Express' E. coli (HisTrap, Superdex 75); also called sulfoquinovose dehydrogenase; PpSQ1_00090; source: E. coli BL21(DE3), purified (Ni-NTA IMAC, SEC)
stoichiometry N: 4
